From patent US9777044B2, “GLUT-1 as a receptor for HTLV envelopes and its uses” (CENTRE NATIONAL DE LA RECHERCHE SCIENTIFIQUE (CNRS), priority 2003, dated 2017)
Residue numbers refer to the chain shown, from its start. Names may count otherwise.

Assays:
293T cells [1] = assay: Hexose uptake assay: 2-deoxyglucose; type: cell-based, human; conditions: for glucose uptake in presence of glucose transporter inhibitors: control 293T cells, 20 μM cytochalasin B, 300 μM phloretin
Protocol: (§1) Assay of hexose uptake. 2-deoxy-D[1-^3H]glucose, D[U-^14C]fructose and 3-O-[^14C]methyl-D-glucose were obtained from Amersham. Hexose uptake assay were adapted from Harrison et al. 1991). After transfection, approximately 250,000 were seeded/well in 24-well plates. […] Uptake was initiated by adding labeled hexoses to a final concentration of 0.1 mM (2 μCi/ml for 2-2-deoxy-D[1-^3H]glucose and 0.2 μCi/ml for D[U-^14C]fructose and 3-O-[^14C]methyl-D-glucose) and cells were incubated for 5′ additional minutes. Cells were then resuspended in 500 μl cold serum-free glucose-free DMEM, wash one time in serum-free glucose-free DMEM, and solubilized in 400 μl of 0.1% SDS. 3 μl was used for Bradford normalization, while the rest was used for detection of either ^3H or ^14C by liquid scintillation in a Beckman counter.

PiT2 [2] = assay: Colocalization with PiT2 by fluorescence microscopy; type: cell-based
GLUT-1 [3] = biological target: T1, GLUT-1 (Homo sapiens, UniProt P11166); assay: Colocalization with GLUT-1 by fluorescence microscopy; type: cell-based
T1 construct: factor Xa cleavage site (C); His (C); expressed in transfected cells
T1 sequence (P11166 1-492): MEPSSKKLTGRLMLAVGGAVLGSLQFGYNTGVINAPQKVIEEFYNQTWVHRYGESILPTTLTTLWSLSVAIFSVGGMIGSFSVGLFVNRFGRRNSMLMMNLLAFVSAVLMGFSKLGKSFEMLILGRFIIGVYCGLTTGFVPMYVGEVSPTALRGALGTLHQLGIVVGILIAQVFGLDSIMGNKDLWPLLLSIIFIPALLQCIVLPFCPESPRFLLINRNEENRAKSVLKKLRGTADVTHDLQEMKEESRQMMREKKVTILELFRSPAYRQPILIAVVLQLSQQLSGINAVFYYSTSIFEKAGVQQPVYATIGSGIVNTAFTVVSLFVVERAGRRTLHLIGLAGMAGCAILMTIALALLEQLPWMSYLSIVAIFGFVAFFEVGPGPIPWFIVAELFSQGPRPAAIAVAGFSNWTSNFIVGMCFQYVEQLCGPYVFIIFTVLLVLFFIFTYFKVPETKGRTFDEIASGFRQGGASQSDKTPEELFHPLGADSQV
Description: (§2) In order to directly test the ability of HTLV envelopes to bind GLUT-1, we derived a tagged GLUT-1 expression vector and overexpressed this protein in HeLa cells. […] GLUT-3 is the closest isoform to GLUT-1, and transports glucose with kinetics similar to that of GLUT-1. Thus, we derived a tagged GLUT-3 expression vector. […] To determine if GLUT-1 transfected cells were directly responsible for the observed increased in H1RBD binding, we derived fluorescent tagged GLUT-1 and GLUT-3 to uniquevocally identity GLUT-overexpressing cells in the course of our FACS analysis. […] Consequently, we tested if HTLV glycoproteins directly interact with GLUT-1 proteins. To this end, we evaluated the ability of H1RBD to immunoprecipitate GLUT-1. […] Therefore, the GLUT-1 glucose transporter is an essential component of the HTLV envelope receptor.

293T cells [4] = assay: Medium acidification after transfection of envelope expression vectors; type: cell-based, human; conditions: 293T cells transfected with envelope expression vector; phenol-red pH indicator
293T cells [5] = assay: Extracellular lactate in culture medium of transfected cells; type: cell-based, human; conditions: medium of 293T cells one day post transfection
Protocol: Envelope expression and metabolic measurements. 293T cells were transfected with the various envelope expression vectors using a modified version of the calcium phosphate method. After an overnight transfection, cells were washed in phosphate-buffered saline (PBS) and fresh medium was added. Media were harvested at the indicated time points, filtered through a 0.45-μm pore-size filter, and lactate and glucose were measured with enzymatic diagnostic kits (Sigma). Values were normalized to cellular protein content using the Bradford assay (Sigma) after solubilization of cells in lysis buffer (50 mM Tris-HCl pH 8.0, 150 mM NaCl, 0.1% sodium dodecyl sulfate, 1.0% Nonidet P-40, 0.5% deoxycholate) and clarification by centrifugation.

GLUT-1 [6] = biological target: T1, GLUT-1; assay: RBD binding to cells overexpressing GLUT-1; conditions: tagged GLUT-1 expression vector, HeLa cells / 293T cells (FIG. 4a legend)
Description: as §2
Expression vectors. Full length envelope expression vectors for HTLV-1 (pCEL/2[Denesvre, 1995]) and Friend ecotropic MLV (pCEL/F [Denesvre, 1995]), have been previously described. For the HTLV-2 envelope, a fragment from pHTE2 [Rosenberg, 1998] encompassing the tax, rex and env genes and the 3′ LTR was inserted in the pCSI [Battini, 1999] vector (pCSIX.H2). Full length envelope expression vectors for amphotropic MLV (pCSI.A), or devoid of its R peptide (pCSI.AΔR), and H183FEnv that contains the N-terminal 183 amino acids of the HTLV-1 receptor-binding domain in the F-MLV envelope background, as well as truncated envelope expression vectors, derived from pCSI and encoding either of the first 215 residues of HTLV-1 SU (H1RBD), the first 178 residues of HTLV2-SU (H2RBD) or the first 397 residues of the amphotropic murine leukemia virus (MLV) SU (Amp), fused to a C-terminal rabbit IgG Fc tag (rFc) or to EGFP (H2RBD-GFP). All point mutations introduced in HTLV-1 and -2 RBD constructs were generated using the quickchange site-directed mutagenesis method and mutations were verified by sequencing. Human Glut-1 and Glut-3 cDNA were amplified by PCR from the pLib HeLa cDNA library (Clontech), and inserted into pCHIX, a modified version of the pCSI vector that contains a cassette comprising a factor Xa cleavage site, two copies of the hemagglutinin (HA) tag, and a histidine tag. The resulting construct (pCHIX.hGLUT1) encodes a GLUT-1 protein with a HA-His tag at the C-terminal end. GLUT-1 and GLUT-3 were also inserted in a modified pCSI vector containing a DsRed2 C-terminal tag. Similarly, human CD147 was amplified from 293T total RNA by RT-PCR and inserted into the pCHIX backbone in frame with the HA-His tag (pCHIX.hCD147).
Binding assays. […] Binding was analyzed on a FACSCalibur (Becton Dickinson) and data analysis was performed using CellQuest (Becton Dickinson) and WinMDI (Scripps) softwares.

HTLV receptor = biological target: T2, HTLV receptor (Homo sapiens, UniProt P11166); assay: FACS binding assay of RBD and mutants on HeLa cells
T2 construct: endogenous in cells; host or cells: HeLa cells
T2 sequence (P11166 1-492): T1 sequence (P11166 1-492)
Protocol: Binding assays. Binding assays were carried out as previously described [Manel, 2003]. Briefly, 5×10^5 cells (293T, HeLa, Jurkat or freshly isolated human erythrocytes) were incubated with 500 μl of H1RBD, H2RBD or ARBD supernatants for 30 min at 37° C., washed with PBA (1% BSA, 0.1% sodium azide in PBS), and incubated with a sheep anti-rabbit IgG antibody conjugated to fluorescein isothiocyanate (Sigma). […] Binding was analyzed on a FACSCalibur (Becton Dickinson) and data analysis was performed using CellQuest (Becton Dickinson) and WinMDI (Scripps) softwares.

GLUT-1 [7] = biological target: T1, GLUT-1; assay: Immunoprecipitation of GLUT-1-HA with anti-rabbit-Fc beads; type: binding; conditions: co-expression with GLUT-1 in 293T cells, probed with anti-HA antibody
Description: FIGS. 4a-4c GLUT-1 is a receptor for HTLV envelopes. FIG. 4a, Binding of H1RBD, H2RBD, H2RBD D102A mutant, and ARBD to control 293T cells or 293T cells overexpressing either GLUT-1 or PiT2. FIG. 4b, Binding of H2RBD-EGFP to cells overexpressing GLUT-1-HA or GLUT-3-HA, and corresponding immunoblots using an anti-HA antibody. FIG. 4c, Immunoprecipitation of GLUT-1-HA from 293T cells transfected with either an irrelevant construct, GLUT-1 alone, H1RBD alone, H1RBD Y114A alone, GLUT-1 with H1RBD or GLUT-1 with H1RBD Y114A expression vectors Immunoprecipitation was performed using anti-rabbit-Fc beads and probed with an anti-HA antibody. Total cell extracts were blotted using an anti-rabbit Fc or an anti-HA antibody.
In order to directly test the ability of HTLV envelopes to bind GLUT-1, we derived a tagged GLUT-1 expression vector and overexpressed this protein in HeLa cells. […] GLUT-3 is the closest isoform to GLUT-1, and transports glucose with kinetics similar to that of GLUT-1. Thus, we derived a tagged GLUT-3 expression vector. […] To determine if GLUT-1 transfected cells were directly responsible for the observed increased in H1RBD binding, we derived fluorescent tagged GLUT-1 and GLUT-3 to uniquevocally identity GLUT-overexpressing cells in the course of our FACS analysis. […] To this end, we evaluated the ability of H1RBD to immunoprecipitate GLUT-1. […]

293T cells [8] = assay: Hexose uptake assay: fructose; type: cell-based, human; conditions: transfected 293T cells
Protocol: as §1

PiT2 [9] = assay: RBD binding to cells overexpressing PiT2
[10] = test system: MLV particles pseudotyped with HTLV-2 envelopes; assay: Interference to infection by HTLV-2 envelope pseudotyped MLV particles; type: cell-based; conditions: 293T cells transfected with H2RBD expression vector
Description: (§3) Viral receptor permits entry and thus infection. No cellular system currently exists that lacks GLUT-1 expression. […] In this system, over-expression of HTLV-2 RBD interferes with infecting incoming HTLV particles and specifically decreases HTLV titers by at least 2 logs, while no effect is detected on control A-MLV titers. To determine if GLUT-1 is an entry receptor for HTLV, we overexpressed GLUT-1, GLUT-3 or Pit2 in addition to the interfering H2RBD. While Pit2 and GLUT-3 had no effect on HTLV titers, GLUT-1 completely alleviated the interference to infection induced by H2RBD (FIG. 5). […] Thus, GLUT-1 is an entry receptor for HTLV.
(§4) Infections. 293T cells were transfected in 6-wells plate, and one day after transfection, medium was replaced by high glucose DMEM supplemented with fructose (5 g/l) and non-essential amino acids. The next day, infection was initiated by adding supernatants containing MLV particles pseudotyped with either HTLV-2 or A-MLV envelopes. The following day, fresh medium was added, and 24 hours later cells were fixed and stained for alkaline phosphatase activity and dark focus of infection were counted. Viral particles were obtained by transfecting 293T cells with pLAPSN, pGagPol and either pCSIX.H2 or pCSI.A, and harvesting the 0.45 μm-filtered supernatants 24 hours later.

[11] = test system: MLV particles pseudotyped with A-MLV envelopes; assay: Interference to infection by A-MLV envelope pseudotyped MLV particles; type: cell-based; conditions: 293T cells transfected with H2RBD expression vector
Description: as §3, §4

C=C1[C@@H](C)[C@H]2[C@H](Cc3ccccc3)NC(=O)[C@]23OC(=O)/C=C/[C@H](O)CCC[C@@H](C)C/C=C/[C@H]3[C@@H]1O [cytochalasin B, reference compound]
glucose uptake in presence of glucose transporter inhibitors (293T cells [1]): inhibited glucose uptake

O=C(CCc1ccc(O)cc1)c1c(O)cc(O)cc1O [phloterin, phloretin, reference compound]
glucose uptake in presence of glucose transporter inhibitors (293T cells [1]): inhibited glucose uptake

GFP-tagged HTLV-2 RBD
colocalization with PiT2 (PiT2 [2]): not with PiT2 | colocalization with GLUT-1 (GLUT-1 [3]): colocalized with GLUT-1

HTLV-2 Env: full length syncytial wild-type HTLV-2 envelope (pCSIX.H2) (MKWVTFISLLFLFSSAYS)
medium acidification (293T cells [4]): did not readily acidify

B1: D106A (protein)
chain: DYSPSCCTLTIGVSSYHSKPCNPAQPVCSWTLDLLALSADQALQPPCPNLVSYSSYHATYSLYLFPHWIKKPNRNGGGYYSASYSAPCSLKCPYLGCQSWTCPYTGAVSSPYWKFQQDVNFTQEVSRLNINLHFSKCGFPFSLLVDAPGYDPIWFLNTEPSQLPPTAPPLLPHSNLDHILEPSIPWKSKLLTLVQ
lactate accumulation in cells expressing RBD mutant (293T cells [5]): minimally reduced | binding upon GLUT-1 overexpression (GLUT-1 [6]): did not bind GLUT-1 | binding to the HTLV receptor as detected by FACS analysis (HTLV receptor): significantly reduced

B2: Y114A (protein)
chain: B1 chain with A86D, Y94A
lactate accumulation in cells expressing RBD mutant (293T cells [5]): not reduced | detection of GLUT-1 upon immunoprecipitation with anti-rabbit-Fc-beads (GLUT-1 [7]): could not be detected | binding to the HTLV receptor as detected by FACS analysis (HTLV receptor): non-detectable

B3: H2RBD: first 178 residues of HTLV2-SU fused to a C-terminal rabbit IgG Fc tag (rFc) (protein)
chain: VDVPRDCGCKPCICTVPEVSSVFIFPPKPKDVLTITLTPKVTCVVVDISKDDPEVQFSWFVDDVEVHTAQTQPREEQFNSTFRSVSELPIMHQDWLNGKEFKCRVNSAAFPAPIEKTISKTKGRPKAPQVYTIPPPKEQMAKDKVSLTCMITDFFPEDITVEWQWNGQPAENYKNTQPIMDTDGSYFVYSKLNVQKSNWEAGNTFTCSVLHEGLHNHHTEKSLSHSPGK
binding upon GLUT-1 overexpression (GLUT-1 [6]): dramatically increased | decrease in 2-deoxyglucose uptake (293T cells [1]; transfected 293T cells vs control cells): approximately 4 fold | Fructose uptake (293T cells [8]): not altered | binding upon overexpression of PiT2 (PiT2 [9]): remained at background levels | decrease of HTLV titers by over-expression of interfering RBD [10]: at least 2 logs | effect on control A-MLV titers [11]: no effect
